Binding result and Kd data for 6 molecules are collected here from publication PMC9823104, “Targeted systematic evolution of an RNA platform neutralizing DNMT1 function and controlling DNA methylation”.

The target in data set [1] is T1, His-tagged DNMT1 (Homo sapiens, UniProt P26358 1-1616). Nature of the data set: ELONA; BLI: AR2G tips, protein amine-coupled, assay buffer not fully stated (PBS pre-hydration); MST: 50 nM RED-tris-NTA labelled stock in 25 mM Hepes pH 7.5, 250 mM NaCl, 0.05% Tween 20 / PBS-T mix, 25 C; EMSA: 5 mM Tris pH 7.4, 5 mM MgCl2, 1 mM DTT, 3% glycerol, 100 mM NaCl, RT; ELONA: PBS, RT; pulldown: 10 mM Tris pH 7.5, 200 nM (so in the source) NaCl, 5 mM EDTA, 0.1% Triton X-100. The following applies: protein: commercial; tags: His6; label: 3' biotin; hairpin (predicted).
T1 sequence (P26358 whole entry): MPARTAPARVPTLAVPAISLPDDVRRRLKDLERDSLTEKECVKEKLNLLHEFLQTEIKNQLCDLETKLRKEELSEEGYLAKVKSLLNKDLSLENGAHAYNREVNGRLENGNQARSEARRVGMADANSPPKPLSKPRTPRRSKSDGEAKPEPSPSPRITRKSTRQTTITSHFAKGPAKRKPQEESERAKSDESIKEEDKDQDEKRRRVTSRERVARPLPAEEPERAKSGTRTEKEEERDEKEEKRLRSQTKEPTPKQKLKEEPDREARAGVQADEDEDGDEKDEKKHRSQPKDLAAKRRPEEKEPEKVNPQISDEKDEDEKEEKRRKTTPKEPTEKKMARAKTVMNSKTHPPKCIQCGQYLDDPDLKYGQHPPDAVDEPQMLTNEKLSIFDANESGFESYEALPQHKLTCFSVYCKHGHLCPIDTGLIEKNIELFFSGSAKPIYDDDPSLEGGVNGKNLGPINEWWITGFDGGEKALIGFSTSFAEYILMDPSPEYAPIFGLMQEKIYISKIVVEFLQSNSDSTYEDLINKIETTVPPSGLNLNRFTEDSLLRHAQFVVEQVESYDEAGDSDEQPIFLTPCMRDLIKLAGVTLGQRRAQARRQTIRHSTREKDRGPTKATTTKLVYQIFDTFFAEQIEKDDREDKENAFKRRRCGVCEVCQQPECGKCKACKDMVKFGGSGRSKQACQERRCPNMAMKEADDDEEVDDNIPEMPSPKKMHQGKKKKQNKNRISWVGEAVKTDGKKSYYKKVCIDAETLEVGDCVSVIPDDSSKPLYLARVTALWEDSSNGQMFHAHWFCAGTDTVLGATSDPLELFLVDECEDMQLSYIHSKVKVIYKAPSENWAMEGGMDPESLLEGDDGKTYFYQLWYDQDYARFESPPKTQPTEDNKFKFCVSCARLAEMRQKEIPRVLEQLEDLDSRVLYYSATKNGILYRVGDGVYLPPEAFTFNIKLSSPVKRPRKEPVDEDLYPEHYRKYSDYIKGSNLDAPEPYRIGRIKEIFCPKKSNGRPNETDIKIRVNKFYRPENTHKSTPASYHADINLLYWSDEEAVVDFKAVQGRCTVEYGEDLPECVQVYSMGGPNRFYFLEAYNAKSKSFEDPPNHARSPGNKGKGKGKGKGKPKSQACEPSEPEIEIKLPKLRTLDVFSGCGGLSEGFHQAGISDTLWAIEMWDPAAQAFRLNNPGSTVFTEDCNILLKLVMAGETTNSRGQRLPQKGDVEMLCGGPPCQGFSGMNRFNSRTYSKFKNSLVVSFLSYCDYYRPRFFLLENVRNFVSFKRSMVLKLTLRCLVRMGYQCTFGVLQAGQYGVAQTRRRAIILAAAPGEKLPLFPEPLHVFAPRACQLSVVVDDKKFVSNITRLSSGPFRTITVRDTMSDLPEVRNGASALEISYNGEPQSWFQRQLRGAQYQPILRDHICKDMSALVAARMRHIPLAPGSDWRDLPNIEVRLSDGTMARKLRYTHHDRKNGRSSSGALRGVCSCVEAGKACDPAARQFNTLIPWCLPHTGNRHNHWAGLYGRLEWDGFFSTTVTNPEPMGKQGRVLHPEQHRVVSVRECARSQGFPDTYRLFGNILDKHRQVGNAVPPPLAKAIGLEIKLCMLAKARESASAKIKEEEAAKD

Data set [2] deals with T2, DNMT1 (purified, Active Motif) (UniProt P26358 1-1616). Put plainly: BLI; no binding detected below 100 nM RNA; BLI: AR2G tips, protein amine-coupled, assay buffer not fully stated (PBS pre-hydration); MST: 50 nM RED-tris-NTA labelled stock in 25 mM Hepes pH 7.5, 250 mM NaCl, 0.05% Tween 20 / PBS-T mix, 25 C; EMSA: 5 mM Tris pH 7.4, 5 mM MgCl2, 1 mM DTT, 3% glycerol, 100 mM NaCl, RT; ELONA: PBS, RT; pulldown: 10 mM Tris pH 7.5, 200 nM (so in the source) NaCl, 5 mM EDTA, 0.1% Triton X-100. The note with it: protein: commercial; hairpin (predicted).
T2 sequence (P26358 whole entry): as above

Data set [3] addresses T1, His-tagged DNMT1. Nature of the data set: MST; BLI: AR2G tips, protein amine-coupled, assay buffer not fully stated (PBS pre-hydration); MST: 50 nM RED-tris-NTA labelled stock in 25 mM Hepes pH 7.5, 250 mM NaCl, 0.05% Tween 20 / PBS-T mix, 25 C; EMSA: 5 mM Tris pH 7.4, 5 mM MgCl2, 1 mM DTT, 3% glycerol, 100 mM NaCl, RT; ELONA: PBS, RT; pulldown: 10 mM Tris pH 7.5, 200 nM (so in the source) NaCl, 5 mM EDTA, 0.1% Triton X-100. The note with it: protein: commercial; tags: His6; hairpin (predicted).

Data set [4] deals with T2, DNMT1 (purified, Active Motif). Nature of the data set: BLI; BLI: AR2G tips, protein amine-coupled, assay buffer not fully stated (PBS pre-hydration); MST: 50 nM RED-tris-NTA labelled stock in 25 mM Hepes pH 7.5, 250 mM NaCl, 0.05% Tween 20 / PBS-T mix, 25 C; EMSA: 5 mM Tris pH 7.4, 5 mM MgCl2, 1 mM DTT, 3% glycerol, 100 mM NaCl, RT; ELONA: PBS, RT; pulldown: 10 mM Tris pH 7.5, 200 nM (so in the source) NaCl, 5 mM EDTA, 0.1% Triton X-100. The following applies: protein: commercial; for Kd: hairpin (predicted).

For data set [5], the target named is T1, His-tagged DNMT1. Nature of the data set: MST; up to 1.5 uM RNA; BLI: AR2G tips, protein amine-coupled, assay buffer not fully stated (PBS pre-hydration); MST: 50 nM RED-tris-NTA labelled stock in 25 mM Hepes pH 7.5, 250 mM NaCl, 0.05% Tween 20 / PBS-T mix, 25 C; EMSA: 5 mM Tris pH 7.4, 5 mM MgCl2, 1 mM DTT, 3% glycerol, 100 mM NaCl, RT; ELONA: PBS, RT; pulldown: 10 mM Tris pH 7.5, 200 nM (so in the source) NaCl, 5 mM EDTA, 0.1% Triton X-100. The following applies: protein: commercial; tags: His6; unable to form stem-loop.

Regarding AGGUAAUGGCGAGGCUUCUUAUCUG (structured_RNA, 2'-F pyrimidines (all C and U)) [Ce-10-1 sh biotin], the binding result in data set [1] is given as “binds”.

As for CUGAGGCCUUGGCGAGGCUUCU (structured_RNA, 2'-F pyrimidines (all C and U)) [DNMT1 bait (2'F-Py R5)], the values for the Kd in data set [2] and in data set [3] were 600 ± 100 nM and 440 ± 140 nM, respectively.

As for CUGAGGCCUAACGAAGGCUUCU (structured_RNA, 2'-F pyrimidines (all C and U)) [Ce-49 sh], the Kd in data set [3] is 119 ± 34 nM; in data set [4] it was 79.2 ± 23.7 nM.

For the molecule UUACUGGGCUGAGGUAAUGGCGAGG (structured_RNA, 2'-F pyrimidines (all C and U)) [Ce-10-2 sh], the results for the dissociation constant Kd in data set [3] and in data set [4] were 106 ± 42 nM and 66.4 ± 24 nM, respectively.

For UGGGCUGAGCUCAUGGCGAGGCUUC (structured_RNA, 2'-F pyrimidines (all C and U)) [Ce-9 sh biotin], in data set [1], the binding result is recorded as “binds”.

CAGAGGACAAGGCGAGGCAACA (ssRNA, 2'-F pyrimidines (all C and U)) [mutR5]: the binding result in data set [5] and in data set [4] (unable to form stem-loop) was “no binding” in each case.
